Here are results for 1 molecule from PMC10035497, “Structures of Cancer Antigen Mesothelin and Its Complexes with Therapeutic Antibodies” (Cancer Research Communications, 2023).

The target in this test is T1, C-terminal shedding-resistant peptide of MSLN (residues 582-598) (human, UniProt Q13421-3).
T1 construct: Mesothelin, human, 17-residue peptide I582 to S598, holds most of the major sheddase cleavage sites; numbers count on: the 622-residue precursor, isoform Q13421-3; also called C-terminal peptide; 17-residue peptide; source: synthetic peptide (GenScript)
T1 chain: IPNGYLVLDLSMQEALS
Description: crystal structure; synthetic peptide 582-598 mixed with Fab(15B6) at a molar ratio of 3:1 in 20 mmol/L Tris, 100 mmol/L NaCl, pH 7.5, overnight at 4°C; 1.74 Å. The following applies: both partners purified.

B1: Fab fragment of mAb 15B6 (Fab, V domains shown)
VH: EVQLQQSGPVLVKPGASVKISCKASGYSFTGYYMHWVRQSNGKSLEWIGRINPYTGVPSYKHNFKDKASLTVDKSSSTAYMELHSLTSEDSAVYYCARELGGYWGQGTTLTVSS
VL: QAVVTQESALTTSPGETVTLTCRSSTGAVTTGNYPNWVQEKPDHLFTGLIAGTNNRAPGVPARFSGSLIGDKAALTITGAQTEDEAIYFCALWFSSHWVFGGGTKLTVL
notes: heavy chain of the Fab in PDB 7U8C (214 residues modelled); mouse IgG2b; light chain of the Fab in PDB 7U8C (213 residues modelled); mouse lambda; mouse isotype IgG2b lambda; raised against the peptide I582-S598; also called Fab(15B6); Fab of Mab 15B6; source: mAb 15B6 obtained from GenScript, digested with immobilised papain, Fc removed on Protein A
Consider B1, for which the binding result was “binds”.
